From patent publication US20120316071A1 (published 2012)
Changes are numbered by the printed parent chain. Names and notes keep the numbering of the source.

T1: rHuman Erythropoietin R/Fc Chimera, CF (R&D Systems Cat#963-ER) (human, UniProt P19235 25-250)
T1 construct: Bought recombinant protein; also called EPO R; EPO R/Fc; Fc part of the bought chimera not given
T1 sequence (looked up): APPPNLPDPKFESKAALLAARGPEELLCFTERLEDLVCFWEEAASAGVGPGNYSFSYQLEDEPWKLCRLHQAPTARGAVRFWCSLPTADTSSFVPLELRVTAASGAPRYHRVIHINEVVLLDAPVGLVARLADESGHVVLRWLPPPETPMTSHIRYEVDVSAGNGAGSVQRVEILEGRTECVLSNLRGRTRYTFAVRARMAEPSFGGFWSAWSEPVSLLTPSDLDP

B1: Fab VH5-51_IGHD5-18*01>3_IGHJ4*01 G100K/G104T (H:KT) & V3-4_IGLJ1*01 (Fab, V domains shown)
VH: EVQLVQSGAEVKKPGESLKISCKGSGYSFTSYWIGWVRQMPGKGLEWMGIIYPGDSDTRYSPSFQGQVTISADKSISTAYLQWSSLKASDTAMYYCARRKYSYTYDYFDYWGQGTLVTVSS
VL: QTVVTQEPSFSVSPGGTVTLTCGLSSGSVSTSYYPSWYQQTPGQAPRTLIYSTNTRSSGVPDRFSGSILGNKAALTITGAQADDESDYYCVLYMGSGISYVFGTGTKVTVL
notes: Fab expressed in E. coli; Plasmid A adds CH1 with His6 and Flag tags to the heavy chain; Plasmid E adds lambda CL to the light chain; also called H:KT & L:wt; KT double mutant
B2: Fab VH5-51_IGHD5-18*01>3_IGHJ4*01 G100K/G104T G24T/S28R/G35V (H:KT TRV) & V3-4_IGLJ1*01 M94R/S96M (L:RM) (Fab, V domains shown)
VH: B1 VH with G24T, S28R, G35V
VL: B1 VL with M94R, S96M
notes: Fab expressed in E. coli; Plasmid A adds CH1 with His6 and Flag tags to the heavy chain; Plasmid E adds lambda CL to the light chain; also called H:KT TRV & L:RM; G100K/G104T G24T/S28R/G35V & M94R/S96M
B3: Fab VH5-51_IGHD5-18*01>3_IGHJ4*01 G100K/G104T (H:KT) & V3-4_IGLJ1*01 M94R/S96M (L:RM) (Fab, V domains shown)
VH: B1 VH
VL: B1 VL with M94R, S96M
notes: Fab expressed in E. coli; Plasmid A adds CH1 with His6 and Flag tags to the heavy chain; Plasmid E adds lambda CL to the light chain; also called H:KT & L:RM; G100K/G104T & M94R/S96M
B4: Fab VH5-51_IGHD5-18*01>3_IGHJ4*01 G100K/G104T S28R (H:KT S28R) & V3-4_IGLJ1*01 (Fab, V domains shown)
VH: B1 VH with S28R
VL: B1 VL
notes: Fab expressed in E. coli; Plasmid A adds CH1 with His6 and Flag tags to the heavy chain; Plasmid E adds lambda CL to the light chain; also called H:KT S28R & L:wt; G100K/G104T S28R & parent
B5: Fab VH5-51_IGHD5-18*01>3_IGHJ4*01 G100K/G104T G24A/S28R/G35V (H:KT ARV) & V3-4_IGLJ1*01 (Fab, V domains shown)
VH: B1 VH with G24A, S28R, G35V
VL: B1 VL
notes: Fab expressed in E. coli; Plasmid A adds CH1 with His6 and Flag tags to the heavy chain; Plasmid E adds lambda CL to the light chain; also called H:KT ARV & L:wt; G100K/G104T G24A/S28R/G35V & parent
B6: Fab VH5-51_IGHD5-18*01>3_IGHJ4*01 G100K/G104T G24T/S28R/G35V (H:KT TRV) & V3-4_IGLJ1*01 (Fab, V domains shown)
VH: B1 VH with G24T, S28R, G35V
VL: B1 VL
notes: Fab expressed in E. coli; Plasmid A adds CH1 with His6 and Flag tags to the heavy chain; Plasmid E adds lambda CL to the light chain; also called H:KT TRV & L:wt; G100K/G104T G24T/S28R/G35V & parent
B7: Fab VH5-51_IGHD5-18*01>3_IGHJ4*01 G100K/G104T G24L/S28R/G35V (H:KT LRV) & V3-4_IGLJ1*01 (Fab, V domains shown)
VH: B1 VH with G24L, S28R, G35V
VL: B1 VL
notes: Fab expressed in E. coli; Plasmid A adds CH1 with His6 and Flag tags to the heavy chain; Plasmid E adds lambda CL to the light chain; also called H:KT LRV & L:wt; G100K/G104T G24L/S28R/G35V & parent
B8: Fab VH3-23_IGHD2-21*01>3_IGHJ6*01 H100E/S108P/Y113G (EPG) & V2-13_IGLJ2*01 (Fab, V domains shown)
VH: not shown
VL: SSELTQDPAVSVALGQTVRITCQGDSLRSYYASWYQQKPGQAPVLVIYGKNNRPSGIPDRFSGSSSGNTASLTITGAQAEDEADYYCNSRDSSGNHLVVFGGGTKLTVL
notes: Fab; CH1 (His and Flag tags) and lambda CL come from the expression vectors; also called H:EPG
B9: Fab VH3-23_IGHD2-21*01>3_IGHJ6*01 H100E/S108P/Y113G (EPG) Y109W & V2-13_IGLJ2*01 (Fab, V domains shown)
VH: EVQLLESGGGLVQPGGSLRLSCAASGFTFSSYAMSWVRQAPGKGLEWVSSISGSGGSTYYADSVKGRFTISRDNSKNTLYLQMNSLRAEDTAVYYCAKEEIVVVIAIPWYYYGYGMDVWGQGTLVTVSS
VL: B8 VL
notes: Fab; NNK mutant of the EPG heavy chain; CH1 (tags) and lambda CL come from the vectors

target: T2, Recombinant Human DLL4 (R&D Systems Cat#1506-D4/CF) (human, UniProt Q9NR61 27-524); assay: ELISA, DLL4 coated on plate, Fab at 20 nM
T2 construct: Bought recombinant protein; also called delta-like protein 4; Delta-like 4

Row | ELISA signal | Binder
1 | 0.018 | B1
2 | 0.122 | B2
3 | 0.087 | B3
4 | 0.009 | B4
5 | 0.054 | B5
6 | 0.054 | B6
7 | 0.027 | B7

target: T3, rHuman CD44/Fc Chimera, CF (R&D Systems Cat#3660-CD) (human, UniProt P16070 21-220); assay: ECL multispot (MSD), 20 nM Fab;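 also: purified Fab binding to antigens on multispot plates, read by electrochemiluminescence with a TAG-labelled detection antibody, 1 h Fab incubation at 20 °C, signal expressed relative to each well's blank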
T3 construct: Bought recombinant protein; Fc part of the bought chimera not given

Row | ECL signal ratio (column head gives no unit) | Binder
8 | 1.7 | B8

target: T4, rHuman EGF R/Fc Chimera, CF (R&D Systems Cat#344-ER) (human, UniProt P00533 25-645); assay: ECL multispot (MSD), 20 nM Fab;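 also: purified Fab binding to antigens on multispot plates, read by electrochemiluminescence with a TAG-labelled detection antibody, 1 h Fab incubation at 20 °C, signal expressed relative to each well's blank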
T4 construct: Bought recombinant protein; also called epidermal growth factor receptor; Fc part of the bought chimera not given

Row | ECL signal ratio (column head gives no unit) | Binder
9 | 8.4 | B8
10 | 11.1 | B9

target: T5, rHuman ErbB2/Fc Chimera, CF (R&D Systems Cat#1129-ER) (human, UniProt P04626 23-652); assay: ECL multispot (MSD), 20 nM Fab;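 also: purified Fab binding to antigens on multispot plates, read by electrochemiluminescence with a TAG-labelled detection antibody, 1 h Fab incubation at 20 °C, signal expressed relative to each well's blank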
T5 construct: Bought recombinant protein; also called human epidermal growth factor 2 receptor; Fc part of the bought chimera not given

Row | ECL signal ratio (column head gives no unit) | Binder
11 | 11.7 | B8
12 | 16.1 | B9

target: T1, rHuman Erythropoietin R/Fc Chimera, CF …; assay: ECL multispot (MSD), 20 nM Fab;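 also: purified Fab binding to antigens on multispot plates, read by electrochemiluminescence with a TAG-labelled detection antibody, 1 h Fab incubation at 20 °C, signal expressed relative to each well's blank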

Row | ECL signal ratio (column head gives no unit) | Binder
13 | 169 | B9

target: T6, rHuman IGF-1 sR, (IGF-1 sR), CF (R&D Systems Cat#391-GR) (human, UniProt P08069 31-932); assay: ECL multispot (MSD), 20 nM Fab
T6 construct: Bought recombinant soluble receptor; also called insulin-like growth factor-1 soluble receptor

Row | ECL signal ratio (column head gives no unit) | Binder
14 | 1.7 | B8
15 | 1.5 | B9

target: T7, rHuman P-Cadherin/Fc Chimera, CF (R&D Systems Cat#861-PC) (human, UniProt P22223 108-654); assay: ECL multispot (MSD), 20 nM Fab
T7 construct: Bought recombinant protein; Fc part of the bought chimera not given

Row | ECL signal ratio (column head gives no unit) | Binder
16 | 32 | B9

target: T2, Recombinant Human DLL4 (R&D Systems …); assay: ELISA, DLL4 coated on plate, Fab at 0.74 nM

Row | ELISA signal | Binder
17 | 0.019 | B1
18 | 0.006 | B2
19 | 0 | B3
20 | 0 | B4
21 | 0.008 | B5
22 | 0.002 | B6
23 | 0.006 | B7

target: T2, Recombinant Human DLL4 (R&D Systems …); assay: ECL (Meso Scale Discovery) multispot binding assay, DLL4 immobilised, Fab at 100 nM

Row | ECL signal | Binder
24 | 9360 | B1

target: T2, Recombinant Human DLL4 (R&D Systems …); assay: ELISA, DLL4 coated on plate, Fab at 6.67 nM

Row | ELISA signal | Binder
25 | 0.042 | B1
26 | 0.062 | B2
27 | 0.023 | B3
28 | 0.003 | B4
29 | 0.025 | B5
30 | 0.023 | B6
31 | 0.005 | B7

target: T2, Recombinant Human DLL4 (R&D Systems …); assay: ELISA, DLL4 coated on plate, Fab at 2.22 nM

Row | ELISA signal | Binder
32 | 0.014 | B1
33 | 0.028 | B2
34 | 0.007 | B3
35 | 0 | B4
36 | 0.002 | B5
37 | 0 | B6
38 | 0 | B7
